The values that follow come from paper doi:10.1101/192500 (bioRxiv, 2018).

B2: OmpC (wild type, in the purified OmpC-MlaA-His complex) (natural protein, E. coli)
chain: AEVYNKDGNKLDLYGKVDGLHYFSDNKDVDGDQTYMRLGFKGETQVTDQLTGYGQWEYQIQGNSAENENNSWTRVAFAGLKFQDVGSFDYGRNYGVVYDVTSWTDVLPEFGGDTYGSDNFMQQRGNGFATYRNTDFFGLVDGLNFAVQYQGKNGNPSGEGFTSGVTNNGRDALRQNGDGVGGSITYDYEGFGIGGAISSSKRTDAQNTAAYIGNGDRAETYTGGLKYDANNIYLAAQYTQTYNATRVGSLGWANKAQNFEAVAQYQFDFGLRPSLAYLQSKGKNLGRGYDDEDILKYVDVGATYYFNKNMSTYVDYKINLLDDNQFTRDAGINTDNIVALGLVYQF

For series [1], the target named is B2. The experiment in a line: SEC.
Series [2] concerns the target MlaA-His (from dmlaA-His plasmids, in purified OmpC-MlaA-His complexes) (E. coli) (UniProt P76506). The experiment in a line: SEC-MALS.
The series “SEC-MALS” concerns the molecule itself. The experiment in a line: SEC-MALS. (Size exclusion chromatography separates by hydrodynamic size, large species first.)
Series [3] deals with the molecule itself. The experiment in a line: temperature titration with SDS-PAGE.

Sequence of MlaA-His (from dmlaA-His plasmids, in purified OmpC-MlaA-His complexes) (E. coli) (P76506 18-251, one chain of several): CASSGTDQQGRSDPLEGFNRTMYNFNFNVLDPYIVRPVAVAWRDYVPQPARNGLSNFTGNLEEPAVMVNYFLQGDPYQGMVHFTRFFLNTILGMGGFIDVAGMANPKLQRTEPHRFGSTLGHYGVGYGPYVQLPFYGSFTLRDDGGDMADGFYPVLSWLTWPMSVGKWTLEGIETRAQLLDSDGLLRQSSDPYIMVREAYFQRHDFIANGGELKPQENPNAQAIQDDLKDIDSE

B1: MlaA_(D61-K124) peptide (domain or fragment, E. coli, UniProt P76506 61-124, looked up)
chain: DYVPQPARNGLSNFTGNLEEPAVMVNYFLQGDPYQGMVHFTRFFLNTILGMGGFIDVAGMANPK
Regarding B1, in series [1], the binding result is listed as “binds”. As a reminder, the stoichiometry N is a count of units in the complex or per binding partner. B2 gave a stoichiometry N (MlaA per OmpC trimer) in series [2] of 1. For the same molecule, the “stoichiometry N” value in “SEC-MALS” came to 3.

B3: OmpC_(R92A) (natural protein, E. coli, UniProt P06996 22-367, looked up)
chain: AEVYNKDGNKLDLYGKVDGLHYFSDNKDVDGDQTYMRLGFKGETQVTDQLTGYGQWEYQIQGNSAENENNSWTRVAFAGLKFQDVGSFDYGANYGVVYDVTSWTDVLPEFGGDTYGSDNFMQQRGNGFATYRNTDFFGLVDGLNFAVQYQGKNGNPSGEGFTSGVTNNGRDALRQNGDGVGGSITYDYEGFGIGGAISSSKRTDAQNTAAYIGNGDRAETYTGGLKYDANNIYLAAQYTQTYNATRVGSLGWANKAQNFEAVAQYQFDFGLRPSLAYLQSKGKNLGRGYDDEDILKYVDVGATYYFNKNMSTYVDYKINLLDDNQFTRDAGINTDNIVALGLVYQF
As for B3, in series [3], the binding result is reported as “binds”.

B4: OmpC_(G19W) (natural protein, E. coli, UniProt P06996 22-367, looked up)
chain: AEVYNKDGNKLDLYGKVDWLHYFSDNKDVDGDQTYMRLGFKGETQVTDQLTGYGQWEYQIQGNSAENENNSWTRVAFAGLKFQDVGSFDYGRNYGVVYDVTSWTDVLPEFGGDTYGSDNFMQQRGNGFATYRNTDFFGLVDGLNFAVQYQGKNGNPSGEGFTSGVTNNGRDALRQNGDGVGGSITYDYEGFGIGGAISSSKRTDAQNTAAYIGNGDRAETYTGGLKYDANNIYLAAQYTQTYNATRVGSLGWANKAQNFEAVAQYQFDFGLRPSLAYLQSKGKNLGRGYDDEDILKYVDVGATYYFNKNMSTYVDYKINLLDDNQFTRDAGINTDNIVALGLVYQF
Consider B4, for which the binding result in series [3] is “binds”.

B5: OmpCG19W/R92L (natural protein, E. coli, UniProt P06996 22-367, looked up)
chain: AEVYNKDGNKLDLYGKVDWLHYFSDNKDVDGDQTYMRLGFKGETQVTDQLTGYGQWEYQIQGNSAENENNSWTRVAFAGLKFQDVGSFDYGLNYGVVYDVTSWTDVLPEFGGDTYGSDNFMQQRGNGFATYRNTDFFGLVDGLNFAVQYQGKNGNPSGEGFTSGVTNNGRDALRQNGDGVGGSITYDYEGFGIGGAISSSKRTDAQNTAAYIGNGDRAETYTGGLKYDANNIYLAAQYTQTYNATRVGSLGWANKAQNFEAVAQYQFDFGLRPSLAYLQSKGKNLGRGYDDEDILKYVDVGATYYFNKNMSTYVDYKINLLDDNQFTRDAGINTDNIVALGLVYQF
B5: in series [3], the binding result is “binds”.

B6: OmpC_(R92L) (natural protein, E. coli, UniProt P06996 22-367, looked up)
chain: AEVYNKDGNKLDLYGKVDGLHYFSDNKDVDGDQTYMRLGFKGETQVTDQLTGYGQWEYQIQGNSAENENNSWTRVAFAGLKFQDVGSFDYGLNYGVVYDVTSWTDVLPEFGGDTYGSDNFMQQRGNGFATYRNTDFFGLVDGLNFAVQYQGKNGNPSGEGFTSGVTNNGRDALRQNGDGVGGSITYDYEGFGIGGAISSSKRTDAQNTAAYIGNGDRAETYTGGLKYDANNIYLAAQYTQTYNATRVGSLGWANKAQNFEAVAQYQFDFGLRPSLAYLQSKGKNLGRGYDDEDILKYVDVGATYYFNKNMSTYVDYKINLLDDNQFTRDAGINTDNIVALGLVYQF
With B6, in series [3], the binding result was “binds”.
